Here are results for two substances from article PMC7948409.

The target in data set [1] is F-actin (actin filaments) from rabbit leg and back muscle (rabbit) (UniProt P68135). The data set can be described thus: single-molecule TIRF microscopy; HMM (34.2 nM incubation) adsorbed on TMCS glass; rhodamine phalloidin F-actin (5 nM) held stationary in rigor, no MgATP; 5 nM Alexa-647 gelsolin in solution; no added Ca2+ (pCa > 9); 23 °C; 9 min observation.
The target is the same in data set [2]. The data set can be described thus: single-molecule TIRF microscopy; in vitro motility assay under TIRF; HMM (342.8 nM incubation) on TMCS glass; Alexa-488 phalloidin F-actin propelled with 1 mM MgATP; 5 nM Alexa-647 gelsolin; pCa 8.2; 23 °C.
Data set [3] concerns the target F-actin (actin filaments) from rabbit leg and back muscle (UniProt P68135). Described as above. The settings on record: other: single-molecule TIRF microscopy.

As to “Alexa-647-labeled gelsolin (His-tagged recombinant full-length human cytoplasmic gelsolin) (natural protein)”, the gelsolin attachments per filament during 9 min in data set [1] stood at 1.7 per filament. In data set [2], this substance returned a gelsolin molecules bound per filament of 1 per filament and a percent of HMM-propelled actin filaments with bound labeled gelsolin of 36.5%.
On to “Alexa-647-labeled gelsolin (His-tagged recombinant full-length human cytoplasmic gelsolin)”, for which, in data set [3], the “percent of sliding filaments with bound gelsolin, corrected for the labeling efficiency” value is “approximately 55% of all sliding filaments have bound gelsolin”.
